Source: publication PMC11084668, “EGCG Disrupts the LIN28B/Let-7 Interaction and Reduces Neuroblastoma Aggressiveness”

T1: rLIN28B (LIN28B-Myc-His) (Homo sapiens, UniProt Q6ZN17 1-250)
T1 sequence: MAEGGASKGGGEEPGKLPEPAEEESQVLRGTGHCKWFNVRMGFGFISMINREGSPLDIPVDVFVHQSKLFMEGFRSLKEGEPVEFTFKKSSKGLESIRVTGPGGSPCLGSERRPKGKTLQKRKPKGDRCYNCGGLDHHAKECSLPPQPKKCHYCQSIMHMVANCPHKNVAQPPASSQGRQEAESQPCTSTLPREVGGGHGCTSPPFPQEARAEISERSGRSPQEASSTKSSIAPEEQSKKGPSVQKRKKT


Experiments:
rLIN28B (LIN28B-Myc-His) [1] = target: T1, rLIN28B (LIN28B-Myc-His); assay: AlphaScreen; REMSA: 20 mM HEPES pH 7.5, 50 mM KCl, 0.5 ug BSA, 0.25% glycerol, room temperature, 1 h; AlphaScreen: dialysis buffer (Table S3, partly shown: 0.02% Tween, 0.1% BSA, 15% glycerol, pH 7.5?), room temperature, 90 min; details: protein: recombinant; tags: C-terminal Myc-His; label: 5'-biotin
rLIN28B (LIN28B-Myc-His) [2] = target: T1, rLIN28B (LIN28B-Myc-His); assay: AlphaScreen saturation binding; apparent Kd; n = 3, SD; REMSA: 20 mM HEPES pH 7.5, 50 mM KCl, 0.5 ug BSA, 0.25% glycerol, room temperature, 1 h; AlphaScreen: dialysis buffer (Table S3, partly shown: 0.02% Tween, 0.1% BSA, 15% glycerol, pH 7.5?), room temperature, 90 min; details: protein: recombinant; tags: C-terminal Myc-His; label: 5'-biotin

| Binder | binding result (rLIN28B (LIN28B-Myc-His) [1]) | Kd (rLIN28B (LIN28B-Myc-His) [2]) [nM] |
| --- | --- | --- |
| GGCAUGAUACCACCCGGUACGGGC (structured_RNA) [Bi-pre-let-7g-mut] | no binding | – |
| GCUAUGAUACCACCCGGUACAGGAGC (structured_RNA) [Bi-pre-let-7g] | – | 34.7 ± 3.6 |
